First the molecules themselves.
B1: glmS ribozyme (parent)
chain: AUAAAAGCGCCAGAACUACAGAAAUGUAGUUGACGAGGAGGAGGUUUAUCGAAUUUUCGGCGGAUGCCUCCAAA

± gives the standard error. For some assays here: This sample holds only a part of the variants without activity.

What all share (settings): with glucosamine-6-phosphate
Data set [1] covers variants of B1. As to the kind of experiment: kcat; higher = faster cleavage; RNA array. A digest of the protocol: (§1)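 Glucosamine-6-phosphate, from 40 μM to 10 mM in HEPES/KCl/Mg(OAc)2 buffer, was flowed over sequenced MiSeq chips carrying barcoded ribozyme variants transcribed in situ by E. coli RNA polymerase. A hybridised Cy3 probe tracked the variants at 37 °C as tiles were imaged over ~14 h. kobs, kcat and KM were obtained by fitting normalised per-tile medians to exponential decays and then applying weighted Michaelis–Menten fits across concentrations.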

The variants in data set [2] derive from B1. Kind of data set: KM; higher = weaker cofactor use; RNA array. A digest of the protocol:
as §1

Variants of B1 are the subject of data set [3]. Kind of data set: self-cleavage kobs at 40 uM GlcN6P; higher = faster cleavage; RNA array. In a few lines: as §1
Variants of B1 are the subject of data set [4]. As to the kind of experiment: self-cleavage kobs at 160 uM GlcN6P; higher = faster cleavage; RNA array. In a few lines: as §1
Data set [5] covers variants of B1. As to the kind of experiment: self-cleavage kobs at 640 uM GlcN6P; higher = faster cleavage; RNA array. A digest of the protocol:
as §1

The variants in data set [6] derive from B1. Kind of data set: self-cleavage kobs at 2500 uM GlcN6P; higher = faster cleavage; RNA array. A digest of the protocol:
as §1

Data set [7] covers variants of B1. As to the kind of experiment: self-cleavage kobs at 10000 uM GlcN6P; higher = faster cleavage; RNA array. A digest of the protocol: as §1

A word on the kcat: it is the number of substrate molecules converted per active site and unit of time at saturation. Broadly, the KM is the concentration of substrate that gives half-maximal velocity. Consider G43U C67A, for which the kcat with glucosamine-6-phosphate [1] was 0.00389 ± 0.00036 s⁻¹. In addition, the KM with glucosamine-6-phosphate [2] was 1310 ± 180 µM. In addition, in the data set with glucosamine-6-phosphate [3], the “self-cleavage kobs at 40 uM GlcN6P” value was found to be 0.000122 ± 1.7e-05 s⁻¹. Also, the “self-cleavage kobs at 160 uM GlcN6P” value with glucosamine-6-phosphate [4] turned out to be 0.000392 ± 8.9e-05 s⁻¹. Besides, the “self-cleavage kobs at 640 uM GlcN6P” value in the data set with glucosamine-6-phosphate [5] was found to be 0.00129 ± 0.00023 s⁻¹. In the data set with glucosamine-6-phosphate [6], the “self-cleavage kobs at 2500 uM GlcN6P” value worked out at 0.00219 ± 0.00043 s⁻¹. In addition, the “self-cleavage kobs at 10000 uM GlcN6P” value in the data set with glucosamine-6-phosphate [7] was 0.00371 ± 0.0005 s⁻¹.

Turning to A52U C68A, in the data set with glucosamine-6-phosphate [1], the kcat was determined as 2.14e-05 ± 8.2e-06 s⁻¹.

For the variant A15U A52G, the kcat with glucosamine-6-phosphate [1] was determined as 0.00041 ± 2.6e-05 s⁻¹. Further, the KM with glucosamine-6-phosphate [2] was found to be 2270 ± 280 µM. Further, the “self-cleavage kobs at 640 uM GlcN6P” value in the data set with glucosamine-6-phosphate [5] stood at 8.94e-05 ± 1.6e-05 s⁻¹. Also, the “self-cleavage kobs at 2500 uM GlcN6P” value in the data set with glucosamine-6-phosphate [6] turned out to be 0.000222 ± 3.6e-05 s⁻¹. The “self-cleavage kobs at 10000 uM GlcN6P” value in the data set with glucosamine-6-phosphate [7] turned out to be 0.000331 ± 4.6e-05 s⁻¹.

Take U31A U55G C67G: in the data set with glucosamine-6-phosphate [1], the kcat is 0.000655 ± 6.8e-05 s⁻¹. Besides, the KM with glucosamine-6-phosphate [2] is 428 ± 100 µM. Also, the “self-cleavage kobs at 40 uM GlcN6P” value with glucosamine-6-phosphate [3] worked out at 5.68e-05 ± 1.9e-05 s⁻¹. Besides, the “self-cleavage kobs at 160 uM GlcN6P” value with glucosamine-6-phosphate [4] was determined as 0.000166 ± 5.4e-05 s⁻¹. In the data set with glucosamine-6-phosphate [5], the “self-cleavage kobs at 640 uM GlcN6P” value was 0.000467 ± 0.00012 s⁻¹. Besides, in the data set with glucosamine-6-phosphate [6], the “self-cleavage kobs at 2500 uM GlcN6P” value was 0.000505 ± 9.5e-05 s⁻¹. Further, the “self-cleavage kobs at 10000 uM GlcN6P” value with glucosamine-6-phosphate [7] is 0.000735 ± 0.00019 s⁻¹.

Consider C16G U56G, for which, in the data set with glucosamine-6-phosphate [1], the kcat was 0.00338 ± 0.00054 s⁻¹. For the same variant, the KM in the data set with glucosamine-6-phosphate [2] stood at 1220 ± 320 µM. Further, the “self-cleavage kobs at 40 uM GlcN6P” value with glucosamine-6-phosphate [3] is 0.000129 ± 2.5e-05 s⁻¹. Also, the “self-cleavage kobs at 160 uM GlcN6P” value in the data set with glucosamine-6-phosphate [4] stood at 0.000387 ± 9.6e-05 s⁻¹. For the same variant, the “self-cleavage kobs at 640 uM GlcN6P” value with glucosamine-6-phosphate [5] came to 0.000953 ± 0.00023 s⁻¹. Further, the “self-cleavage kobs at 2500 uM GlcN6P” value in the data set with glucosamine-6-phosphate [6] worked out at 0.00213 ± 0.00038 s⁻¹. In addition, in the data set with glucosamine-6-phosphate [7], the “self-cleavage kobs at 10000 uM GlcN6P” value is 0.00348 ± 0.00064 s⁻¹.

For the variant G37A U46C, in the data set with glucosamine-6-phosphate [1], the turnover number (kcat) worked out at 0.0015 ± 0.00029 s⁻¹. The KM in the data set with glucosamine-6-phosphate [2] turned out to be 4230 ± 1100 µM. Moreover, the “self-cleavage kobs at 160 uM GlcN6P” value with glucosamine-6-phosphate [4] was determined as 5.92e-05 ± 9.2e-06 s⁻¹. In addition, the “self-cleavage kobs at 640 uM GlcN6P” value with glucosamine-6-phosphate [5] came to 0.000204 ± 3e-05 s⁻¹. Further, the “self-cleavage kobs at 2500 uM GlcN6P” value with glucosamine-6-phosphate [6] came out at 0.00046 ± 8e-05 s⁻¹. Also, the “self-cleavage kobs at 10000 uM GlcN6P” value with glucosamine-6-phosphate [7] came out at 0.00117 ± 0.00017 s⁻¹.

As to A14U A15C, the kcat with glucosamine-6-phosphate [1] was 9.41e-05 ± 8.4e-06 s⁻¹. The KM with glucosamine-6-phosphate [2] came to 1880 ± 510 µM. Besides, the “self-cleavage kobs at 640 uM GlcN6P” value with glucosamine-6-phosphate [5] worked out at 3.12e-05 ± 1.3e-05 s⁻¹. Besides, the “self-cleavage kobs at 2500 uM GlcN6P” value with glucosamine-6-phosphate [6] worked out at 5.02e-05 ± 9.3e-06 s⁻¹. For the same variant, in the data set with glucosamine-6-phosphate [7], the “self-cleavage kobs at 10000 uM GlcN6P” value stood at 8.11e-05 ± 1.1e-05 s⁻¹.

Regarding G43A C67A, the kcat with glucosamine-6-phosphate [1] turned out to be 0.00175 ± 0.00022 s⁻¹. In the data set with glucosamine-6-phosphate [2], the KM came out at 976 ± 200 µM. The “self-cleavage kobs at 40 uM GlcN6P” value with glucosamine-6-phosphate [3] was found to be 7.15e-05 ± 1.3e-05 s⁻¹. Besides, the “self-cleavage kobs at 160 uM GlcN6P” value in the data set with glucosamine-6-phosphate [4] is 0.000242 ± 6.6e-05 s⁻¹. Besides, in the data set with glucosamine-6-phosphate [5], the “self-cleavage kobs at 640 uM GlcN6P” value amounted to 0.000611 ± 0.00013 s⁻¹. Moreover, the “self-cleavage kobs at 2500 uM GlcN6P” value in the data set with glucosamine-6-phosphate [6] turned out to be 0.00156 ± 0.00025 s⁻¹. Further, the “self-cleavage kobs at 10000 uM GlcN6P” value in the data set with glucosamine-6-phosphate [7] came to 0.00147 ± 0.00026 s⁻¹.

Regarding U57A C67U, in the data set with glucosamine-6-phosphate [1], the kcat came out at 0.000139 ± 3.1e-05 s⁻¹. For the same variant, the “self-cleavage kobs at 640 uM GlcN6P” value with glucosamine-6-phosphate [5] was found to be 5.03e-05 ± 1.7e-05 s⁻¹. The “self-cleavage kobs at 2500 uM GlcN6P” value with glucosamine-6-phosphate [6] worked out at 5.36e-05 ± 9.6e-06 s⁻¹. Besides, the “self-cleavage kobs at 10000 uM GlcN6P” value with glucosamine-6-phosphate [7] was determined as 0.000108 ± 1e-05 s⁻¹.

Regarding A48U C50G C67A C68U, in the data set with glucosamine-6-phosphate [1], the kcat is 1.99e-05 ± 2.7e-06 s⁻¹.

In the case of A33C G41U, the kcat with glucosamine-6-phosphate [1] is under 1e-05 s⁻¹. The “self-cleavage kobs at 640 uM GlcN6P” value with glucosamine-6-phosphate [5] is under 1e-05 s⁻¹.

On to G44U U54G, for which the kcat in the data set with glucosamine-6-phosphate [1] worked out at 0.000306 ± 2.6e-05 s⁻¹. For the same variant, the KM with glucosamine-6-phosphate [2] was found to be 986 ± 200 µM. In the data set with glucosamine-6-phosphate [5], the “self-cleavage kobs at 640 uM GlcN6P” value came out at 0.000127 ± 2.2e-05 s⁻¹. In the data set with glucosamine-6-phosphate [6], the “self-cleavage kobs at 2500 uM GlcN6P” value was determined as 0.000226 ± 4.8e-05 s⁻¹. Also, the “self-cleavage kobs at 10000 uM GlcN6P” value in the data set with glucosamine-6-phosphate [7] came out at 0.00027 ± 5.1e-05 s⁻¹.

On to G13A A14U, for which the catalytic constant (kcat) with glucosamine-6-phosphate [1] amounted to 0.000964 ± 0.00014 s⁻¹. Moreover, in the data set with glucosamine-6-phosphate [2], the KM turned out to be 3120 ± 800 µM. Further, the “self-cleavage kobs at 160 uM GlcN6P” value with glucosamine-6-phosphate [4] stood at 5.13e-05 ± 1.1e-05 s⁻¹. Moreover, the “self-cleavage kobs at 640 uM GlcN6P” value with glucosamine-6-phosphate [5] stood at 0.000184 ± 2.9e-05 s⁻¹. The “self-cleavage kobs at 2500 uM GlcN6P” value with glucosamine-6-phosphate [6] is 0.000365 ± 5e-05 s⁻¹. Also, the “self-cleavage kobs at 10000 uM GlcN6P” value with glucosamine-6-phosphate [7] worked out at 0.000781 ± 8e-05 s⁻¹.

Consider G13A A14C, for which, in the data set with glucosamine-6-phosphate [1], the turnover number (kcat) is 0.000465 ± 2.9e-05 s⁻¹. In addition, in the data set with glucosamine-6-phosphate [2], the KM was found to be 2440 ± 230 µM. For the same variant, the “self-cleavage kobs at 160 uM GlcN6P” value with glucosamine-6-phosphate [4] was 2.93e-05 ± 1e-05 s⁻¹. In addition, the “self-cleavage kobs at 640 uM GlcN6P” value with glucosamine-6-phosphate [5] is 9.47e-05 ± 1.2e-05 s⁻¹. Further, in the data set with glucosamine-6-phosphate [6], the “self-cleavage kobs at 2500 uM GlcN6P” value came out at 0.000245 ± 3.2e-05 s⁻¹. Also, in the data set with glucosamine-6-phosphate [7], the “self-cleavage kobs at 10000 uM GlcN6P” value amounted to 0.000353 ± 8.7e-05 s⁻¹.

For the variant C11U G29C C50G C68G, the kcat with glucosamine-6-phosphate [1] was 7.23e-05 ± 1.9e-05 s⁻¹. For the same variant, the “self-cleavage kobs at 160 uM GlcN6P” value with glucosamine-6-phosphate [4] turned out to be 0.000134 ± 2.7e-05 s⁻¹. For the same variant, in the data set with glucosamine-6-phosphate [5], the “self-cleavage kobs at 640 uM GlcN6P” value was found to be 7.71e-05 ± 2.1e-05 s⁻¹. In addition, the “self-cleavage kobs at 2500 uM GlcN6P” value with glucosamine-6-phosphate [6] turned out to be 9.67e-05 ± 1.5e-05 s⁻¹. The “self-cleavage kobs at 10000 uM GlcN6P” value in the data set with glucosamine-6-phosphate [7] came out at 5.44e-05 ± 1e-05 s⁻¹.
